In article PMC3662962 (Biochemical and biophysical research communications, 2010):

Target: the molecule itself

B1: PAS domain of Mycobacterium tuberculosis Rv1364c (residues 1-163) (domain or fragment)
chain: MAAEMDWDKTVGAAEDVRRIFEHIPAILVGLEGPDHRFVAVNAAYRGFSPLLDTVGQPAREVYPELEGQQIYEMLDRVYQTGEPQSGSEWRLQTDYDGSGVEERYFDFVVTPRRRADGSIEGVQLIVDDVTSRVRARQAAEARVEELSERYRNVRDSATVMQQ
modifications: Se-Methionine labeled (the crystallised protein only)
- stoichiometry N: 2
